Assay results published in the supplement of paper PMC7877785.
± gives the uncertainty stated by the source.

Test: self-splicing fitness, log relative to wild type (ln ratio); higher = more splicing; Tetrahymena group I intron in knt gene, E. coli kanamycin selection, DiMSum; sequences stand for … in CUCUCU…GGAGGGAAAAGUUAUCAGGCAUGCACCUGGUAGCUAGUCUUUAAACCAAUAGAUUGCAUCGGUUUAAAAGGCAAGACCGUCAAAUUGCGGGAAAGGGGUCAACAGCCGUUCAGUACCAAGUCUCAGGGGAAACUUUGAGAUGGCCUUGCAAAGGGUAUGGUAAUAAGCUGACGGACAUGGUCCUAACCACGCAGCCAAGUCCUAAGUCAACAGAUCUUCUGUUGAUAUGGAUGCAGUUCACAGACUAAAUGUCGGUCGGGGAAGAUGUAUUCUUCUCAUAAGAUAUAGUCGGACCUCUCCUUAAUGGGAGCUAGCGGAUGAAGUGAUGCAACACUGGAGCCGCUGGGAACUAAUUUGUAUGCGAAAGUAUAUUGAUUAGUUUUGGAGUACUCGUGGUCG
Method in brief: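 Pooled colonies went to amplicon sequencing on an Illumina HiSeq 2500 after six replicate transformations. The plates were LB agar with 100 μg/mL carbenicillin, 50 μM IPTG and 0.2% rhamnose, with or without 25 μg/mL kanamycin, incubated overnight at 37°C or 30°C. The E. coli BL21(DE3) library had all eight P1ex-region intron nucleotides randomised, the intron placed in the knt kanamycin-resistance gene on pET-22b(+). DiMSum fitness is the error-weighted combination of replicate fold changes, kanamycin against none, normalised to wild type.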

| Sequence | self-splicing fitness (ln) (30 °C) | self-splicing fitness (ln) (37 °C) |
| --- | --- | --- |
| GCGCAGCAAUAUUACGCGCG | -3.1 ± 0.32 |  |
| ACGGAGCAAUAUUACGCAUU | -3.43 ± 0.43 | -2.85 ± 0.34 |
| UAUGAGCAAUAUUACGAGAU |  | -2.19 ± 0.3 |
| ACACAGCAAUAUUACGGGUC | -4.34 ± 0.21 | -2.17 ± 0.13 |
| UCCCAGCAAUAUUACGAUCA | -1.48 ± 0.14 | -0.722 ± 0.14 |
| UCUGAGCAAUAUUACGUAAU | -3.33 ± 0.23 | -2.12 ± 0.29 |
| CCUCAGCAAUAUUACGACCU | -2.59 ± 0.16 | -2.59 ± 0.29 |
| GGAGAGCAAUAUUACGAGGC | -2.83 ± 0.23 | -1.95 ± 0.37 |
| GCGCAGCAAUAUUACGUAGU | -0.438 ± 0.06 | 0.18 ± 0.076 |
| AAUGAGCAAUAUUACGAGCU | -3.15 ± 0.24 | -3.57 ± 0.42 |
| GCCUAGCAAUAUUACGUUGC | -1.05 ± 0.076 | -0.0792 ± 0.081 |
| UAGUAGCAAUAUUACGCUUG | -0.659 ± 0.092 | -0.506 ± 0.13 |
| CACAAGCAAUAUUACGGAGA | -3.31 ± 0.17 | -2.65 ± 0.2 |
| UCGCAGCAAUAUUACGGACC | -3.5 ± 0.41 | -2.69 ± 0.33 |
| CUCCAGCAAUAUUACGGAUA | -1.82 ± 0.11 | -0.962 ± 0.1 |
| AGCCAGCAAUAUUACGCAUA | -2.21 ± 0.15 | -1.34 ± 0.16 |
| UGAGAGCAAUAUUACGGCGA | -3.53 ± 0.34 | -0.434 ± 0.23 |
| GCCGAGCAAUAUUACGGGGA | -1.36 ± 0.069 | -0.555 ± 0.069 |
| UUCCAGCAAUAUUACGCACG | -1.72 ± 0.086 | -0.884 ± 0.13 |

| Sequence | self-splicing fitness (ln) (30 °C) | self-splicing fitness (ln) (37 °C) |
| --- | --- | --- |
| UUUCAGCAAUAUUACGACUU | -0.723 ± 0.077 | -0.00938 ± 0.099 |
| UGCCAGCAAUAUUACGACCG | -0.712 ± 0.1 | 0.509 ± 0.14 |
| CGCUAGCAAUAUUACGUCCU | -1.59 ± 0.15 | -1.45 ± 0.17 |
| UGUCAGCAAUAUUACGGCCA | -0.139 ± 0.11 | -0.162 ± 0.12 |
| UUUCAGCAAUAUUACGCUGU | -3.52 ± 0.13 | -2.19 ± 0.21 |
| ACAGAGCAAUAUUACGUGUG | -2.65 ± 0.12 | -2.99 ± 0.14 |
| UAUGAGCAAUAUUACGUUUA | -2.59 ± 0.24 | -1.94 ± 0.14 |
| CCUGAGCAAUAUUACGGAAG | -2.82 ± 0.15 | -1.29 ± 0.12 |
| GUGAAGCAAUAUUACGUAAU | -1.19 ± 0.057 | -0.668 ± 0.069 |
| GUCCAGCAAUAUUACGUUAA | -1.64 ± 0.1 | -0.751 ± 0.079 |
| UACCAGCAAUAUUACGAAUA | -0.776 ± 0.086 | 0.199 ± 0.093 |
| GGCUAGCAAUAUUACGUAUG | -2.06 ± 0.13 | -0.678 ± 0.13 |
| UUGAAGCAAUAUUACGACCG | -0.105 ± 0.28 | 0.113 ± 0.28 |
| ACCUAGCAAUAUUACGUUCU | -1.08 ± 0.1 | -0.757 ± 0.1 |
| CACCAGCAAUAUUACGGGCG | -1.81 ± 0.053 | -0.295 ± 0.065 |
| GGUGAGCAAUAUUACGACAU | -1.27 ± 0.016 | -0.567 ± 0.035 |
| AGAUAGCAAUAUUACGCGCA | -0.594 ± 0.063 | -0.129 ± 0.094 |
| GUCGAGCAAUAUUACGUCCC | -1.03 ± 0.19 | -0.687 ± 0.33 |
| AGCUAGCAAUAUUACGGAGC | -2.44 ± 0.17 | -1.46 ± 0.23 |
